Data reported in patent US20230372552A1, “CONJUGATE OR ITS SALT COMPRISING A GASTRIN-RELEASING PEPTIDE RECEPTOR ANTAGONIST AND USES THEREOF” (ORANO MED, priority 2020, published 2023).

Key:
[1] = ^203Pb-conjugate biodistribution study in tumor-free immunocompetent mice
Description: After that, the mice were divided in 6 groups of 10, denoted as groups A, B, C, D, E and F respectively, each comprising 5 male and 5 female.
The mice of group A were sacrificed at 5 min post-dose injection; the mice of group B were sacrificed at 30 min post-dose injection; the mice of group C were sacrificed at 1 hour post-dose injection; the mice of group D were sacrificed at 4 hours post-dose injection whereas the mice of group E were sacrificed at 24 hours post-dose injection.
The mice of group F were placed in metabolic cages and their urinary and fecal excretions were collected at 4 hours, 24 hours and 48 hours post-dose injection; they were sacrificed at 48 hours post-dose injection. […]
The tubes were counted for two min. A standard consisting of 5 μL of the solution injected to the mice was also counted for each group of mice. […]
The excretions of the mice of group F were also counted.
The percent injected dose per gram, noted as % ID/g, was calculated for each organ collected (mean±standard deviation) whilst the percent injected dose, noted as % ID, was calculated for the excretions of the mice of group F (mean±standard deviation).

[2] = Comparative biodistribution, ACMP linker, tumor-free immunocompetent mice; format: in vivo, immunocompetent CD1 female mice; conditions: 4 hours post-dose injection
Description: The study was aimed at assessing the biodistribution […] conjugate of the invention in that it comprises a linker constituted by a 4-amino-(1-carboxymethyl)piperidinyl group, of formula: […]
5 immunocompetent CD1 female mice, 7-8 weeks old, were injected intravenously with one ^212Pb-ACMP-conjugate dose.
The mice were sacrificed at 4 hour post-dose injection.
(§1) The tubes were counted for two min. Standards consisting of 5 μL of the solutions injected to the mice were also counted. The background was automatically subtracted from the counts. The standards were also used for decay correction.

subcutaneous PC-3 tumors [3] = assay: ^212Pb-conjugate biodistribution study in xenograft-bearing mice (10 μCi per 14 ng); format: in vivo, athymic nude mice
Description: 15 male athymic nude mice, 7-8 weeks old and weighting 27.74±1.87 g at study initiation, were injected subcutaneously, into the right flank, with 10^6 PC-3 human prostate cancer cells in 100 μL of RPMI-1640 medium/Matrigel™ (v/v: 1/1). […] Then each mouse received intravenously (into a tail vein) one ^212Pb-conjugate dose. […] The tubes were counted for two min. […] The background was automatically subtracted from the counts. The standard was also used for decay correction.

subcutaneous PC-3 tumors [4] = assay: Comparative biodistribution, change of chelator (DOTAM vs DOTA), xenograft-bearing mice; format: in vivo, athymic nude mice; conditions: over the first 24 hours
Text: The instant study was aimed at comparing the biodistribution of the conjugate of the invention, labelled with ^212Pb, in athymic nude mice bearing a human prostate cancer cell tumor with that of a conjugate also labelled with ^212Pb and only differing from the conjugate of the invention in that the chelator corresponds to DOTA (1,4,7,10-tetraazacyclododecane-1,4,7,10-tetraacetic acid) and is of formula:
30 male athymic nude mice, 7-8 weeks old and weighting 27.90±1.9 g at study initiation, were injected subcutaneously, into the right flank, with 10^6 PC-3 human prostate cancer cells in 100 μL of RPMI-1640 medium/Matrigel™ (v/v: 1/1). The tumors were let grow until they reached 200-300 mm^3.
Each mouse of groups A, B and C received intravenously one ^212Pb-DOTAM-conjugate dose whilst each mouse of groups […] received intravenously one ^212Pb-DOTA-conjugate dose.
as §1

Compound: CC(C)C[C@H](NC(=O)C[C@H](O)[C@H](CC(C)C)NC(=O)[C@H](Cc1c[nH]cn1)NC(=O)CNC(=O)[C@@H](NC(=O)[C@H](C)NC(=O)[C@H](Cc1c[nH]c2ccccc12)NC(=O)[C@H](CCC(N)=O)NC(=O)[C@@H](Cc1ccccc1)NC(=O)CCNC(=O)CCNC(=O)CN1CCN(CC(N)=O)CCN(CC(N)=O)CCN(CC(N)=O)CC1)C(C)C)C(N)=O [^203Pb-conjugate, metal not drawn]
- route of elimination (urinary, fecal excretion) ([1]; excretions collected at 4, 24 and 48 hours post-dose): mainly eliminated by renal excretion
- biodistribution profile ([1]; male and female mice, 5 min to 48 hours, 10 μCi per 28 ng): safe biodistribution profile

Compound: CC(C)C[C@H](NC(=O)C[C@H](O)[C@H](CC(C)C)NC(=O)[C@H](Cc1c[nH]cn1)NC(=O)CNC(=O)[C@@H](NC(=O)[C@H](C)NC(=O)[C@H](Cc1c[nH]c2ccccc12)NC(=O)[C@H](CCC(N)=O)NC(=O)[C@@H](Cc1ccccc1)NC(=O)CN1CCC(NC(=O)CN2CCN(CC(N)=O)CCN(CC(N)=O)CCN(CC(N)=O)CC2)CC1)C(C)C)C(N)=O [^212Pb-ACMP-conjugate, metal not drawn]
- safety profile relative to the -β-Ala-β-Ala- linker conjugate [2]: significantly lower safety profile
- uptake in kidneys relative to the -β-Ala-β-Ala- linker conjugate ([2]; 10 μCi per 4.1 ng): 5 times

Compound: CC(C)C[C@H](NC(=O)C[C@H](O)[C@H](CC(C)C)NC(=O)[C@H](Cc1c[nH]cn1)NC(=O)CNC(=O)[C@@H](NC(=O)[C@H](C)NC(=O)[C@H](Cc1c[nH]c2ccccc12)NC(=O)[C@H](CCC(N)=O)NC(=O)[C@@H](Cc1ccccc1)NC(=O)CCNC(=O)CCNC(=O)CN1CCN(CC(N)=O)CCN(CC(N)=O)CCN(CC(N)=O)CC1)C(C)C)C(N)=O [^212Pb-conjugate, metal not drawn]
- tumor/blood ratio (subcutaneous PC-3 tumors [3]; i.v., 10 μCi per 14 ng): high
- clearance (subcutaneous PC-3 tumors [3]; mouse, in vivo, iv): fast clearance
- tumor retention versus ^212Pb-DOTA-conjugate (subcutaneous PC-3 tumors [4]): higher
